Measurements taken from US20240083991A1.

What was measured:
[1] = target: human mature BMP9 (human) (UniProt Q9UK05); assay: competition ELISA: antibody mixed with 5 nM BMP9-biotin, binding to coated ActRIIA (5 µg/ml) detected
[2] = target: human mature BMP9 (human) (UniProt Q9UK05); assay: competition ELISA: antibody mixed with 1.5 nM BMP9-biotin, binding to coated BMPRII (2 µg/ml) detected
[3] = target: human mature BMP9 (human) (UniProt Q9UK05); assay: competition ELISA: antibody mixed with 15 nM BMP9-biotin, binding to coated ActRIIB (5 µg/ml) detected
[4] = target: human mature BMP9 (human) (UniProt Q9UK05); assay: competition ELISA: antibody mixed with 0.6 nM BMP9-biotin, binding to coated BMPRII (1 µg/ml) detected
[5] = target: human mature BMP9 (human) (UniProt Q9UK05); assay: competition ELISA: antibody mixed with 0.5 nM BMP9-biotin, binding to coated ALK1 (1 µg/ml) detected
[6] = target: human mature BMP9 (human) (UniProt Q9UK05); assay: competition ELISA: antibody mixed with 0.2 nM BMP9-biotin, binding to coated ALK1 (1 µg/ml) detected

Sequence of human mature BMP9 (human) (Q9UK05 320-429): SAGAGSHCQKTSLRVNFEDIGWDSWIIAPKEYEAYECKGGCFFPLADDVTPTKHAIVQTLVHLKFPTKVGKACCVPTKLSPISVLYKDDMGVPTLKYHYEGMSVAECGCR

Binder | IC50 (read off the curve) [1] [nM] | IC50 (read off the curve) [2] [nM] | IC50 (read off the curve) [3] [nM] | IC50 (read off the curve) [4] [nM] | IC50 (read off the curve) [5] [nM] | IC50 (read off the curve) [6] [nM]
BM01 (antibody, from another filing, V domains shown) VH: QVQLVQSGAEVKKPGASVKVSCKASGYTFTRYWMHWVRQAPGQGLEWMGEINPSQGGTNYNEKFKSRVTMTVDKSISTAYMELSRLRSDDTAVYYCAIGSNYGGLVYWGQGTLVTVSS VL: EIVLTQSPATLSLSPGERATLSCRASESLDNYGISFMNWFQQKPGQAPRFLIYAASNQGSGIPARFSGSGSGTDFTLTISSLQPEDTAVYFCQQSKEVPRTFGGGTKVEIKR | 2 | 2 | 8 | 0.1 | – | –
BM02 (antibody, from another filing, V domains shown) VH: QVQLVQSGAEVKKPGASVKVSCKASGYTFRSYNMHWVRQAPGQGLEWMGLIYPGNAVTSYSQKFKDRVTMTVDKSTSTAYMELSSLRSEDTAVYYCAKDDYFRGGSYAMDYWGQGTTVTVSS VL: EIVLTQSPDFQSVTPKEKVTITCRASQSIRNNLHWYQQKPDQSPKLLIKYASQSIRGVPSRFSGSGSGTDFTLTINSLEAEDAATYYCQQSHSWPYTFGGGTKVEIKR | – | – | – | – | 0.1 | 0.06
